Common to all, as to experiment: co-IP
Test [1] concerns the target T1, RHL-1 truncated at the carboxy terminus, product of 267 aa (rat, UniProt P02706 1-267, [35S]methionine label).
T1 sequence (looked up): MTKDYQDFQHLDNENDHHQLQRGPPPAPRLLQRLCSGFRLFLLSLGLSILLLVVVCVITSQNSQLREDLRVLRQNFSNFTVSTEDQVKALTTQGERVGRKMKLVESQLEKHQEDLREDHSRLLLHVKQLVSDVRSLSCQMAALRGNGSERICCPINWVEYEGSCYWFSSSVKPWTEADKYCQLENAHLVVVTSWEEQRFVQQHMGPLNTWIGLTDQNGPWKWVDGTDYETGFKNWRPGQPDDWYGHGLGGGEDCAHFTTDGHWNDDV

In test [2] the target is T2, RHL-1 truncated at the carboxy terminus, product of 260 aa (rat, UniProt P02706 1-260, [35S]methionine label).
T2 sequence (looked up): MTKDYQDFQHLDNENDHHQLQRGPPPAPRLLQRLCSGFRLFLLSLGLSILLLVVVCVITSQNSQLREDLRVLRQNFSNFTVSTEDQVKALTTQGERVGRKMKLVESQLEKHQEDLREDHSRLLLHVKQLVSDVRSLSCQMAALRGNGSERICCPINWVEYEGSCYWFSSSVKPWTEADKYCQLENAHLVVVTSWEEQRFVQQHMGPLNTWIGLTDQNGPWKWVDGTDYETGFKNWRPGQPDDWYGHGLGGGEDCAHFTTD

The target of test [3] is T3, RHL-1 truncated at the carboxy terminus, product of 204 aa (rat, UniProt P02706 1-204, [35S]methionine label).
T3 sequence (looked up): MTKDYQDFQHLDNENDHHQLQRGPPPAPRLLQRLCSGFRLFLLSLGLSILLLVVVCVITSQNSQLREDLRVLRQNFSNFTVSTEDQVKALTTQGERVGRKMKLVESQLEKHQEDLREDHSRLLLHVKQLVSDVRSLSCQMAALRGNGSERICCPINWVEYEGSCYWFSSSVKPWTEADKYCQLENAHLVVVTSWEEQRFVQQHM

B1: rat hepatic lectin subunit RHL-2/3 (subunit of the rat asialoglycoprotein receptor), full length (natural protein, UniProt P08290 1-301, looked up)
chain: MEKDFQDIQQLDSEENDHQLIGDEEQGSHVQNLRTENPRWGGQPPSRPFPQRLCSKFRLSLLALAFNILLLVVICVVSSQSMQLQKEFWTLKETLSNFSTTTLMEFKALDSHGGSRNDNLTSWETILEKKQKDIKADHSTLLFHLKHFPLDLRTLTCQLAFFLSNGTECCPVNWVEFGGSCYWFSRDGLTWAEADQYCQMENAHLLVINSREEQEFVVKHRGAFHIWIGLTDKDGSWKWVDGTEYRSNFKNWAFTQPDNWQGHEEGGSEDCAEILSDGLWNDNFCQQVNRWACERKRDITY
modifications: [35S]methionine label; glycosylated by the microsomes
B1: the “percent of RHL-2/3 coimmunoprecipitated, relative to full-length RHL-1” value in test [1] is 100%; in test [2], 100%; in test [3], 88%.

Values taken from paper PMC2290040 (The Journal of Cell Biology, 1992).
